Target: ubiquitin-specific protease 7 (USP7/HAUSP), endogenous in human H1299 and HCT116 cells (human) (UniProt Q93009)
Experiment: cell-based or functional assay

Chain of UniProt Q93009 (Q93009 whole entry): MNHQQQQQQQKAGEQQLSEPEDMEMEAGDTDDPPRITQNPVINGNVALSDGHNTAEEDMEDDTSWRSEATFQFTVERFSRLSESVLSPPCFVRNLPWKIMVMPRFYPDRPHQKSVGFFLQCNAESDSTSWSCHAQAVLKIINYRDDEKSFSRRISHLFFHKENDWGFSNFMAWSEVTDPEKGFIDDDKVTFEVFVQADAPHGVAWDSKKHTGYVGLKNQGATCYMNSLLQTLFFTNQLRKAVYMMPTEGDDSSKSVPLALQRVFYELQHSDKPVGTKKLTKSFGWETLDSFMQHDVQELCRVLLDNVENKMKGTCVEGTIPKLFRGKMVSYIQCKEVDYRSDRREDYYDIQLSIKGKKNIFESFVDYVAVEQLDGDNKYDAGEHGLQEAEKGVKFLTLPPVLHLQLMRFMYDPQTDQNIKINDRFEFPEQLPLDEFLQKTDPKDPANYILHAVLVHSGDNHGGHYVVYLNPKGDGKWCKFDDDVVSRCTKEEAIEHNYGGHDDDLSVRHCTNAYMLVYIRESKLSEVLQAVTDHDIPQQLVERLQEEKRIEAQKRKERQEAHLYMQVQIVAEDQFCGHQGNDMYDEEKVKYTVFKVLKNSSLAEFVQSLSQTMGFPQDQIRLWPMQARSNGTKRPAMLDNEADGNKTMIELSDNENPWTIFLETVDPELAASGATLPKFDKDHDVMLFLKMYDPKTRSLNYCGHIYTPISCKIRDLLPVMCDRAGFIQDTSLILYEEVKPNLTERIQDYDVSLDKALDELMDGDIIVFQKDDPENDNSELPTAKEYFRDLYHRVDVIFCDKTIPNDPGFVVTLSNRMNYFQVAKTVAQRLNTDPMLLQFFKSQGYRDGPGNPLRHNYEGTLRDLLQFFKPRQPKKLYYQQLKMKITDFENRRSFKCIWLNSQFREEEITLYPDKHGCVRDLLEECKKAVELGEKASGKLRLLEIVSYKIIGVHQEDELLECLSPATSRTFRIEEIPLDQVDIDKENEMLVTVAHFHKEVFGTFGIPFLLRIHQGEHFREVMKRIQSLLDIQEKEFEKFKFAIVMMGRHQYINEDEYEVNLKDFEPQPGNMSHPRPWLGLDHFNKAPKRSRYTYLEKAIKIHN

Substance: DBP-S76A of the virus mutant UBM2 (H5pm4250) (from UniProt P03265 1-529)
- USP7 diffusely distributed within the nucleus, 48 h p.i. (immunofluorescence) (% of the UBM2-infected cells): 45
- partial relocalization of USP7 into ring-like or rosette-shaped replication centers, 48 h p.i. (immunofluorescence) (% of the UBM2-infected cells): 55
- relocalization of USP7 into viral replication centers (immunofluorescence) (% of the infected cells): 100
